This is an account of results in IntAct's records for PubMed 23624404.

In the test the target is rad51_yeast RAD51 (UniProt P25454).
Sequence of rad51_yeast RAD51 (P25454 whole entry): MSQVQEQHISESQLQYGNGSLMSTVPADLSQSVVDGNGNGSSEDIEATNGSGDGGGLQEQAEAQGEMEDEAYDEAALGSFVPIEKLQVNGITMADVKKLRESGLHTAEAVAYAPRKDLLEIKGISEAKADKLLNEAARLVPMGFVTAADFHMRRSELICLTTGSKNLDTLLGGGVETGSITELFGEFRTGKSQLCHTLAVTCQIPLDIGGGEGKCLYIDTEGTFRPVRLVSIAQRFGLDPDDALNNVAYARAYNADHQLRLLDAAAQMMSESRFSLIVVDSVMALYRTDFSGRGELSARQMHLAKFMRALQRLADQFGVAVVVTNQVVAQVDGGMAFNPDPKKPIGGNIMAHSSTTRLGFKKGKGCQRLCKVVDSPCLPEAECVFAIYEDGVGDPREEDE

Consider “DNA repair and recombination protein RAD52 (Saccharomyces cerevisiae) (from UniProt P06778) K10R;K11R;K220R”, for which the “effect of a mutation on the interaction” value is “decreasing interaction strength”.
